Reference: article PMC13537762

Target: respiratory complex III (mouse (endogenous in liver mitochondria))
Assay: native gel or EMSA; blue native PAGE (3-12% Bis-Tris) of digitonin-solubilised isolated liver mitochondria from control or CLS-LKO mice (standard chow); western blotting with a supercomplex antibody cocktail or subunit-specific antibodies

- stoichiometry N: 2
Substance: respiratory complex III
